Consider 2 substances from patent US20130130988A1.

“And” between values parts separate entries of the source, which are not always exact repeats. Identical values can stand only once.

The target in one assay is galectin-1. The experiment in a line: microplate binding assay, complex adsorbed in wells, biotin-streptavidin visualisation. The following applies: scale: µg of macromolecular complex per 10 ng of galectin-1.
In a further assay the target is TLR-6. The assay is described as above.

As to “macromolecular complex of Bifidobacterium longum CBi0703 (CNCM I-3994), prepared according to example 2 (fermentation with pH not regulated)”, the concentration at saturation with galectin-1 is 10 and 20. Further, the concentration at saturation (µg of macromolecule per 10 ng of TLR6) with TLR-6 was 10 and 20.

Consider “macromolecular complex of Bifidobacterium longum CBi0703 (CNCM I-3994), prepared according to example 1 (fermentation with pH regulated)”, for which, in the assay with galectin-1, the concentration at saturation was 20 and 10. In the assay with TLR-6, the concentration at saturation (µg of macromolecule per 10 ng of TLR6) was 10 and 20.
